According to patent US20130115676:
Where a chain is given by its changes, count along the chain named.

How the values were obtained:
Assay in all cases: cleavage_in_vitro
[1] = system: T1, BspQI-HF K279P/R388F (Bacillus sphaericus); conditions: NEB4, 10 mM Mg acetate, 50 C
T1 sequence: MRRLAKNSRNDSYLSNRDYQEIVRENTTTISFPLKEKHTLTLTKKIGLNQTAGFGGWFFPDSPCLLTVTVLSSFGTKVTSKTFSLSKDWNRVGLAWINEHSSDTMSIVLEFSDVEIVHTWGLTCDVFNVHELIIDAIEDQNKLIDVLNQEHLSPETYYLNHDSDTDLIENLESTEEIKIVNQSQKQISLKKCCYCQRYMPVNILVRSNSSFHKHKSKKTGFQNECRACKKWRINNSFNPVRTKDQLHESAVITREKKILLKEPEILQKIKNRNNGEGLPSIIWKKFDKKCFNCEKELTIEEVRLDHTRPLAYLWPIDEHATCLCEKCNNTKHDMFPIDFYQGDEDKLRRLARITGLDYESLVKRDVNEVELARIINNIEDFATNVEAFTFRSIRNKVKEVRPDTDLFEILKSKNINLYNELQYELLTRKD

[2] = molecular target: T2, SalI (Streptomyces albus G) (UniProt Q53608); conditions: NEB3, 10 mM MgCl2, 37 C; Table 10 gives FI 4
T2 sequence: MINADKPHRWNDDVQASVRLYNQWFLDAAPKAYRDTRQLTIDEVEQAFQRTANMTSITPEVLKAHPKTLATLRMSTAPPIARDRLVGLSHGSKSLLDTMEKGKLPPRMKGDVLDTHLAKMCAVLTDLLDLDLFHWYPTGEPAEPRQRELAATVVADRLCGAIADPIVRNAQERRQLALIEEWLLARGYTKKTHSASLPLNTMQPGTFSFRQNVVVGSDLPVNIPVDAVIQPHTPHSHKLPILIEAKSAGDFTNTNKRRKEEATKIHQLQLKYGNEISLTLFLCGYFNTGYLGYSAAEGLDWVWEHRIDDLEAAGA

[3] = molecular target: T3, SalI-HF R107A (Streptomyces albus G) (UniProt Q53608); conditions: NEB2, 10 mM MgCl2, 37 C; Table 10 gives FI >=2000
T3 sequence: T2 sequence with R107A

[4] = molecular target: T4, PvuII (Proteus vulgaris) (UniProt P23657); conditions: NEB1, 10 mM MgCl2, 37 C
T4 sequence: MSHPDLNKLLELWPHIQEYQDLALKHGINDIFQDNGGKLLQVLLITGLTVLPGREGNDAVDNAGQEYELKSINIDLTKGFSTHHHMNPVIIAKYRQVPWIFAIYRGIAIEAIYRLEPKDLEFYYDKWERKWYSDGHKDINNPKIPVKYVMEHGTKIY

[5] = molecular target: T5, PvuII-HF T46G (Proteus vulgaris) (UniProt P23657); conditions: NEB4, 10 mM Mg acetate, 37 C
T5 sequence: T4 sequence with T46G

[6] = system: T6, AvrII (Anabaena variabilis); conditions: NEB1, 10 mM MgCl2, 37 C
T6 sequence: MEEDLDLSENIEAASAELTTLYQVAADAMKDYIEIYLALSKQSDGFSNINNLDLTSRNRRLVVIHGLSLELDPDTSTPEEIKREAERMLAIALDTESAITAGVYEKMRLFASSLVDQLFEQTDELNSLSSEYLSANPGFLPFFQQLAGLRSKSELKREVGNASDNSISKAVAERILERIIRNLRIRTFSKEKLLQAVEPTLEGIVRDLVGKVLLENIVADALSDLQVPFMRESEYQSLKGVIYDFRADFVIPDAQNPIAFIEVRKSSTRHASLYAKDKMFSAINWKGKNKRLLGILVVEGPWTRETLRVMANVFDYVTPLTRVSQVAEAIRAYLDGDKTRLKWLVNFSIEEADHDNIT

[7] = system: T7, AvrII-HF Y104F (Anabaena variabilis); conditions: NEB4, 10 mM Mg acetate, 37 C
T7 sequence: T6 sequence with Y104F

For pUC19, which activity (fidelity index) [1] is on record?
The activity (fidelity index) was greater than 4000.

Which results are given for lambda DNA HindIII-digested?
activity (fidelity index) [2]: 32; activity (fidelity index) [3]: > 64000

With pBR322 as the substance, how does the activity (fidelity index) [4] read?
Its activity (fidelity index) is 250.

And the activity (fidelity index) [5]?
The activity (fidelity index) was 500.

Which results are given for T7 DNA?
activity (fidelity index) [6]: 64; activity (fidelity index) [7]: > 1000
